Article doi:10.1101/2022.11.11.516191

Assays:
Experiment in all cases: SEC
Settings in all cases: remark: other sources report otherwise
[1] = target: T1, 14-3-3 β 130nY (human), P31946
T1 chain: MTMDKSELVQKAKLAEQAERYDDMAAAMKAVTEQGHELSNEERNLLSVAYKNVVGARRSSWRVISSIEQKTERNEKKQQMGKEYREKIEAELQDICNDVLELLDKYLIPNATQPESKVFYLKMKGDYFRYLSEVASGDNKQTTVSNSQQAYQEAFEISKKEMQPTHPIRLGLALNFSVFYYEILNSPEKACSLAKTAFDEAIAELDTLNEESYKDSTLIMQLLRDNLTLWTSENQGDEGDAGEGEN

[2] = target: T2, 14-3-3 β 213nY (human), P31946
T2 chain: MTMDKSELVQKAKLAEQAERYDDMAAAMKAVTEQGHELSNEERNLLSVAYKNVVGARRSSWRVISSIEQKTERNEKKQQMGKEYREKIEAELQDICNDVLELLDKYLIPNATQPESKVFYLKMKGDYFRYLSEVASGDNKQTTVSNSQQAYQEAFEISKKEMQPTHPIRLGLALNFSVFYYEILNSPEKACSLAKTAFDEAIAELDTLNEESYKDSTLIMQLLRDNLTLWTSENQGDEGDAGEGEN

[3] = target: T3, 14-3-3 β wild-type (human), P31946
T3 chain: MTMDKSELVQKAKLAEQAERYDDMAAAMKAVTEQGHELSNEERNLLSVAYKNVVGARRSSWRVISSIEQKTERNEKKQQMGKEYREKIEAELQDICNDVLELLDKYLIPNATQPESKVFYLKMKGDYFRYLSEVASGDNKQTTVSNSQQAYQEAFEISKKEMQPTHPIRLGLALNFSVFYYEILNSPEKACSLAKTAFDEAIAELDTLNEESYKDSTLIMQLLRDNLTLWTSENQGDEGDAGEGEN

B1: 14-3-3 β 130nY, P31946 1-246 (natural protein)
chain: MTMDKSELVQKAKLAEQAERYDDMAAAMKAVTEQGHELSNEERNLLSVAYKNVVGARRSSWRVISSIEQKTERNEKKQQMGKEYREKIEAELQDICNDVLELLDKYLIPNATQPESKVFYLKMKGDYFRYLSEVASGDNKQTTVSNSQQAYQEAFEISKKEMQPTHPIRLGLALNFSVFYYEILNSPEKACSLAKTAFDEAIAELDTLNEESYKDSTLIMQLLRDNLTLWTSENQGDEGDAGEGEN
modifications: here or on the partner: 3-nitro-tyrosine at 130 (β-isoform numbering); 3-nitro-tyrosine at 130 (β-isoform numbering)
Work on B1 yielded a stoichiometry N [1] of 2.

B2: 14-3-3 β 213nY, P31946 1-246 (natural protein)
chain: MTMDKSELVQKAKLAEQAERYDDMAAAMKAVTEQGHELSNEERNLLSVAYKNVVGARRSSWRVISSIEQKTERNEKKQQMGKEYREKIEAELQDICNDVLELLDKYLIPNATQPESKVFYLKMKGDYFRYLSEVASGDNKQTTVSNSQQAYQEAFEISKKEMQPTHPIRLGLALNFSVFYYEILNSPEKACSLAKTAFDEAIAELDTLNEESYKDSTLIMQLLRDNLTLWTSENQGDEGDAGEGEN
modifications: here or on the partner: 3-nitro-tyrosine at 213 (β-isoform numbering); 3-nitro-tyrosine at 213 (β-isoform numbering)
Work on B2 yielded a stoichiometry N [2] of 2.

B3: 14-3-3 β wild-type, P31946 1-246 (natural protein)
chain: MTMDKSELVQKAKLAEQAERYDDMAAAMKAVTEQGHELSNEERNLLSVAYKNVVGARRSSWRVISSIEQKTERNEKKQQMGKEYREKIEAELQDICNDVLELLDKYLIPNATQPESKVFYLKMKGDYFRYLSEVASGDNKQTTVSNSQQAYQEAFEISKKEMQPTHPIRLGLALNFSVFYYEILNSPEKACSLAKTAFDEAIAELDTLNEESYKDSTLIMQLLRDNLTLWTSENQGDEGDAGEGEN
Work on B3 yielded a stoichiometry N [3] of 2.
